From US20230250188A1 (NATIONAL UNIVERSITY CORPORATION KOCHI UNIVERSITY, published 2023) come the findings set out here.

Assay [1] concerns the target T1, human GPC1 on the surface of GPC1-positive cancer cells (TE8, TE14, BxPC-3) (human, UniProt P35052 24-530).
T1 sequence: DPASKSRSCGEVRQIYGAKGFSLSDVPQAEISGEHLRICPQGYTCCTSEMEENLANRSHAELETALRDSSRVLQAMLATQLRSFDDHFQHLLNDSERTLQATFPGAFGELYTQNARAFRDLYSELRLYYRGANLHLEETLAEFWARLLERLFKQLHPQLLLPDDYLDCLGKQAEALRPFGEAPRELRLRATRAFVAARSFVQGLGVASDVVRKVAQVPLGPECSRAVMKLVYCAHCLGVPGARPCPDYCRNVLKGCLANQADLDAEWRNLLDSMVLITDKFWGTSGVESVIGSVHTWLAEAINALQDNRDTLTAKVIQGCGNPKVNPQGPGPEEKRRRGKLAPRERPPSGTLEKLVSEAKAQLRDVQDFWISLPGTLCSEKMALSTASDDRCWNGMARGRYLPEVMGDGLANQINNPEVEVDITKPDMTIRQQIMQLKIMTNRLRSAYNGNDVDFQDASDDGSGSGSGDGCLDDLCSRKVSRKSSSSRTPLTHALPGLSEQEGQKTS
In words: cell-based or functional assay.

In assay [2] the target is T2, recombinant human GPC1 protein (R&D Systems) (human, UniProt P35052 24-530).
T2 construct: Bought recombinant protein (R&D Systems); also called human GPC-1 antigen; Glypican-1
T2 sequence: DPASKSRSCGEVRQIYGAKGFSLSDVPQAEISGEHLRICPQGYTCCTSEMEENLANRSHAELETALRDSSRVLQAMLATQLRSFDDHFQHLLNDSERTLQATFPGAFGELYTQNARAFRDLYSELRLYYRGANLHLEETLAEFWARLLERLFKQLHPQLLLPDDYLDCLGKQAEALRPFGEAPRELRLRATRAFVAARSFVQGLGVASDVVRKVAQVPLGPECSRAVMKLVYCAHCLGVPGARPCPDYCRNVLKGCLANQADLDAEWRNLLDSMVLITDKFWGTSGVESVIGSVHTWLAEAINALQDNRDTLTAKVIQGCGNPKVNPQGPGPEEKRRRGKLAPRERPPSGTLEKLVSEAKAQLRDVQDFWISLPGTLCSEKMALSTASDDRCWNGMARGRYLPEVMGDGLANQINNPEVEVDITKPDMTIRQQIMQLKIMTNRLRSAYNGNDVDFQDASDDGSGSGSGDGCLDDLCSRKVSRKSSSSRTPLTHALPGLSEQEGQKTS
In words: SPR (Biacore 8K); antibody captured by anti-human IgG (Fc) on a CM5 chip, recombinant human GPC1 flowed over. Here is the method: The mouse anti-human-GPC1 monoclonal antibody was humanized (subclass: IgG4), and the obtained twenty clones (T1, T2, T3, T7, T8, T10, T11, T22, T26, T28, T29, T31, T32, T33, T34, T36, T43, T56, T57, T59) were prepared. An anti-human IgG (Fc) was immobilized on an sCM5 sensor chip (GE Healthcare) using Human antibody capture kit (GE Healthcare), and the affinity of each of these clones to a recombinant human GPC1 protein (R&D Systems) was measured using Biacore (registered trademark) 8K (GE Healthcare).
For orientation: In SPR one partner is held on a chip, and binding of the other changes the refractive index at the surface.

As a reminder, the Kd is a measure of binding affinity in units of concentration. By koff is commonly meant the rate constant with which the complex falls apart. In general, kon refers to a measure of how fast the partners come together.

B1: humanized anti-GPC1 monoclonal antibody clone T1 (antibody, human IgG4 S228P, kappa, V domains shown)
VH: QVQLVQSGAEVKKPGASVKVSCKASGYTFTGYYMHWVRQAPGQGLEWMGEINPSTGDTTYNQKFKARVTMTRDTSTSTVYMELSSLRSEDTAVYYCAREKRDDGVFAYWGQGTLVTVSS
VL: DIVMTQSPSFLSASVGDRVTITCRASQGISSYLVWYQQKPGKAPKLLIYSASVLQSGVPSRFSGRGYGTDFTLTISSLQPEDFATYYCQQSFSIPPVTFGGGTKVEIKR
notes: IgG
As to B1, the “IC50 of cytotoxicity on TE14 cells (ATP cell viability, 144 h) with MMAF-linked anti-human-IgG Fab as secondary antibody” value (“IC50 of cytotoxicity on TE14 cells” for short) in assay [1] amounted to 0.0399 nM. Besides, in assay [2], the Kd worked out at 5.62 nM, the dissociation rate constant (koff) worked out at 0.00134 s⁻¹ and the on-rate constant (kon) worked out at 238000 M⁻¹ s⁻¹.

B2: humanized anti-GPC1 monoclonal antibody clone T3 (antibody, human IgG4 S228P, kappa, V domains shown)
VH: QVQLVQSGAEVKKPGASVKVSCKASGYTFTGYYMHWVRQAPGQGLEWMGEINPSTGDTTYNQKFKARVTMTRDTSTSTVYMELSSLRSEDTAVYYCAREKRDDGVFAYWGQGTLVTVSS
VL: DIVMTQSPSSVSASVGDRVSITCRASEHINGWLAWYQQIPGKAPRILISSASILQSGAPSRFSGSGFGTDFTLTISSVQPEDFATYYCQQAKSYPLTFGGGTKVEIKR
notes: IgG
As to B2, the “IC50 of cytotoxicity on TE14 cells” value in assay [1] was 0.0526 nM. Further, in assay [2], the equilibrium dissociation constant (Kd) was 3.11 nM, the dissociation rate constant (koff) turned out to be 0.000713 s⁻¹ and the on-rate constant (kon) was determined as 229000 M⁻¹ s⁻¹.

B3: humanized anti-GPC1 monoclonal antibody clone T26 (antibody, human IgG4 S228P, kappa, V domains shown)
VH: QVQLVQSGAEVKKPGASVKVSCKASGYTFTGYYMHWVRQAPGQGLEWMGEINPSTGDTTYNQKFKARVTMTRDTSTSTVYMELSSLRSEDTAVYYCAREKRDDGVFAYWGQGTLVTVSS
VL: DVVMTQSPSSLSASVGERVTITCRASQSISSYLNWYQQKPGKAPKLLIYAASSRATGIPHRYSGSGSGTVFTLTISRLEPEDFATYYCQQFHSYPITFGQGTRLEIKR
As to B3, the “IC50 of cytotoxicity on TE14 cells” value in assay [1] came to 0.803 nM.

B4: humanized anti-GPC1 monoclonal antibody clone T11 (antibody, human IgG4 S228P, kappa, V domains shown)
VH: QVQLVQSGAEVKKPGASVKVSCKASGYTFTGYYMHWVRQAPGQGLEWMGEINPSTGDTTYNQKFKARVTMTRDTSTSTVYMELSSLRSEDTAVYYCAREKRDDGVFAYWGQGTLVTVSS
VL: AIRMTQSPSSLSASVGDRVTITCRASRSISTYLHWYQQKAGKAPKLLIYSAYNLQSGVPSRFSGSGSGTDFTLTISSLQPEDFATYYCQQSYSTPYTFGQGTKVEIKR
notes: IgG
Regarding B4, the “IC50 of cytotoxicity on TE14 cells” value in assay [1] was 0.121 nM. In addition, in assay [2], the dissociation constant Kd was determined as 272 nM, the koff stood at 0.0506 s⁻¹ and the kon was 186000 M⁻¹ s⁻¹.

B5: humanized anti-GPC1 monoclonal antibody clone T10 (antibody, human IgG4 S228P, kappa, V domains shown)
VH: QVQLVQSGAEVKKPGASVKVSCKASGYTFTGYYMHWVRQAPGQGLEWMGEINPSTGDTTYNQKFKARVTMTRDTSTSTVYMELSSLRSEDTAVYYCAREKRDDGVFAYWGQGTLVTVSS
VL: EIVLTQSPSTLSASVGDRVTITCRASQSISSWLAWYQQIPGKAPRILISSASILQSGAPSRFSGSGFGTDFTLTISSVQPEDFATYYCQQAKSYPLTFGGGTKLEIKR
notes: IgG
Regarding B5, in assay [1], the “IC50 of cytotoxicity on TE14 cells” value is 0.0488 nM. Further, in assay [2], the Kd came out at 7.55 nM, the koff turned out to be 0.0015 s⁻¹ and the kon came to 199000 M⁻¹ s⁻¹.

B6: humanized anti-GPC1 monoclonal antibody clone T34 (antibody, human IgG4 S228P, kappa, V domains shown)
VH: QVQLVQSGAEVKKPGASVKVSCKASGYTFTGYYMHWVRQAPGQGLEWMGEINPSTGDTTYNQKFKARVTMTRDTSTSTVYMELSSLRSEDTAVYYCAREKRDDGVFAYWGQGTLVTVSS
VL: VIWMTQSPSSVSASVGDRVTITCRASQAINGWLAWYQQKPGKAPRILIYSASTLQTGAPSRFSGSGFGTDFTLTISSVQPEDFATYYCQQAKSYPLTFGGGTKVEIKR
notes: IgG
Turning to B6, in assay [1], the “IC50 of cytotoxicity on TE14 cells” value worked out at 0.0501 nM. In assay [2], the Kd amounted to 22.8 nM, the koff amounted to 0.00393 s⁻¹ and the kon is 172000 M⁻¹ s⁻¹.
